Measured values: publication PMC4556315, “Structure of the JmjC domain-containing protein NO66 complexed with ribosomal protein Rpl8” (Acta Crystallographica Section D: Biological Crystallography, 2015)
Each block holds one binder with its values, some of them ahead of it.

Assays:
[1] = target: T1, C-terminal fragment of wild-type human NO66 (NO66^176–C) (human, UniProt Q9H6W3 176-641); experiment: pull-down; GST-Rpl8 fragments immobilised on GST beads from E. coli lysate and washed, incubated with purified NO66^176–C at 277 K for 1 h; buffer B (50 mM HEPES pH 7.5, 300 mM NaCl, 0.1% Triton X-100); SDS-PAGE; settings: both partners purified
T1 construct: Cloned in pET-28a(+); Tetramer in the crystal; also called Nucleolar protein 66; wild-type NO66; source: E. coli Rosetta 2 (DE3), purified (Ni-NTA, tag removed by TEV protease, Superdex 200); not shown: His-SUMO, N-terminal, cleaved

[2] = target: T1, C-terminal fragment of wild-type human …; experiment: crystal structure; NO66^176–C with Ni2+, NOG and Rpl8^204–224 peptide (protein:NOG:Ni2+:peptide 1:4:10:15); sitting drop, 295 K, 0.1 M imidazole pH 6.5, 0.5 M sodium acetate; 2.2 Å; settings: both partners purified
[3] = target: the molecule itself; experiment: SEC; Superdex 200 10/300, 20 mM Tris-HCl pH 7.5, 200 mM NaCl; molecular weight estimated from the elution volume

binding result [1]: binds
B1: GST-Rpl8 fragment 193–224 (domain or fragment)
chain: not shown
notes: Cloned in pGEX-6P-1

binding result [2]: binds
B2: Rpl8^204–224 peptide (human ribosomal protein L8) (peptide, UniProt P62917 204-224, looked up)
peptide: MNPVEHPFGGGNHQHIGKPST
notes: Only residues 212–222 are visible in the structure; also called Rpl8 peptide; source: synthetic peptide

B3: NO66^176–C mutant M3 (F450A/R452A/P455A) (enzyme, human, UniProt Q9H6W3 176-641, looked up)
chain: GGEPAWDSPLRRVLAELNRIPSSRRRAARLFEWLIAPMPPDHFYRRLWEREAVLVRRQDHTYYQGLFSTADLDSMLRNEEVQFGQHLDAARYINGRRETLNPPGRALPAAAWSLYQAGCSLRLLCPQAFSTTVWQFLAVLQEQFGSMAGSNVYLTPPNSQGFAPHYDDIEAFVLQLEGRKLWRVYRPRVPTEELALTSSPNFSQDDLGEPVLQTVLEPGDLLYFPRGFIHQAECQDGVHSLHLTLSTYQRNTWGDFLEAILPLAVQAAMEENVEARAGLARDFMDYMGAQHSDSKDPRRTAFMEKVRVLVARLGHFAPVDAVADQRAKDFIHDSLPPVLTDRERALSVYGLPIRWEAGEPVNVGAQLTTETEVHMLQDGIARLVGEGGHLFLYYTVENSRVYHLEEPKCLEIYPQQADAMELLLGSYPEFVRVGDLPCDSVEDQLSLATTLYDKGLLLTKMPLALN
notes: source: E. coli Rosetta 2 (DE3), purified (Ni-NTA, tag removed by TEV protease, Superdex 200); not shown: His-SUMO, N-terminal, cleaved
stoichiometry N [3]: 2
